Laboratory results taken from the supplement of paper PMC10724198.
± gives the standard deviation of the averaged measurements.

Test system: Saccharomyces cerevisiae
Test: protein stability index of tFT-peptide fusion (C-terminal peptide) (PSI (0-1 scale)); higher = more stable (slower turnover)
Conditions: genetic background: wild type; temperature: 30 C
Experimental: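 Multiplexed protein stability (MPS) profiling in S. cerevisiae. Random 12-aa peptides (tFT-X12 library) are fused to the C-terminus of a sfGFP-mCherry tandem fluorescent timer, after mCherry and a GGGS linker. Cells are FACS-sorted into 8 mCherry/sfGFP bins and deep-sequenced. The protein stability index (PSI) is the read-weighted bin average, scaled from 0 (unstable) to 1 (stable). Only peptides with >10 reads are reported; cells were grown at 30 °C in SC-His with glucose.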
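Also: PSI is a weighted mean of sequencing reads over stability bins, variants kept only with over 10 reads, mCherry proximal and sfGFP distal, peptide attached via GGGS linker.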

Point of comparison: GMPTANMYLLLQ, protein stability index 0.636 ± 0.017. Against it:
- GGSIGTELAAVI — within error, 0.682 ± 0.054
- GGSRGGRWGLGE — higher, 0.746 ± 0.087
- GGSRRGLGAAGE — within error, 0.671 ± 0.022
- GGTPIGAHVLLR — higher, 0.661 ± 0.00077
- GGVCRARVAETV — higher, 0.674 ± 0.0074
- GGVGGGGREWRR — within error, 0.683 ± 0.033
- GGVGGRGREWRR — higher, 0.7 ± 0.028
- GGVGGVRLVVSR — within error, 0.684 ± 0.064
- GGVGRGVGRGWG — within error, 0.671 ± 0.03
- GGVLGNGCGFGR — higher, 0.784 ± 0.065
- GGVRAAGTGCGG — within error, 0.642 ± 0.031
- GGVSGESAVVSV — within error, 0.649 ± 0.038
- GGVSRLVGRLGG — higher, 0.7055 ± 0.0017
- GGVVCWACRWEL — within error, 0.671 ± 0.04
- GGVVGWCAGKVV — within error, 0.642 ± 0.071
- GGVVSVYCEVSR — within error, 0.625 ± 0.016
- GGWPWGGFLVDR — higher, 0.735 ± 0.012
- GGWRGWAGENTR — higher, 0.699 ± 0.035
- GGWRRDGSLCGA — within error, 0.733 ± 0.14
- GGWSIVQKRRGG — higher, 0.7215 ± 0.0034
- GGWWVLCGGGWG — lower, 0.567 ± 0.025
- GGYGRAGRDVGG — within error, 0.655 ± 0.035
- GGYLLAGEGTFA — higher, 0.702 ± 0.0094
- GHEQIISIKGIK — higher, 0.73 ± 0.049
- GHVETQTRMASG — within error, 0.789 ± 0.19
- GIGSHSSSNVNP — higher, 0.791 ± 0.094
- GIKKNKIKKKKI — within error, 0.624 ± 0.054
- GIKRKEKEKKNN — within error, 0.615 ± 0.026
- GIMNDMPSLTAT — higher, 0.6757 ± 0.0038
- GISASLRRMTRR — within error, 0.623 ± 0.017
- GISLTVTVRGWL — lower, 0.496 ± 0.019
- GIVFGMRKSDFK — higher, 0.764 ± 0.1
- GIYAWFSGWRKD — higher, 0.72 ± 0.015
- GKAIIIFEQLRR — within error, 0.749 ± 0.12
- GKEGKGEAGIGE — higher, 0.686 ± 0.024
- GKEQIEKKIEGI — lower, 0.589 ± 0.009
- GKGGAEHADQVL — within error, 0.669 ± 0.099
- GKGGITGWCCHH — within error, 0.648 ± 0.04
- GKHIAEMGNRKN — within error, 0.716 ± 0.074
- GKIGYQLGAVIN — within error, 0.709 ± 0.068
- GKINPKMEIWIE — higher, 0.7011 ± 0.0049
- GKKTTQELGKTK — higher, 0.803 ± 0.13
- GKKYDEAQLRKG — higher, 0.709 ± 0.041
- GKMLCADRSLEY — within error, 0.701 ± 0.11
- GKNIINSKITYK — higher, 0.772 ± 0.043
- GKRKEKLEQTAQ — higher, 0.688 ± 0.027
- GKSGGTGAGEKR — within error, 0.661 ± 0.046
- GKTVRERWATRP — within error, 0.651 ± 0.064
- GKYHIFNPNPKA — higher, 0.685 ± 0.012
- GLAELLLTKPTV — within error, 0.652 ± 0.021
- GLAGWCGGGWAL — higher, 0.705 ± 0.026
- GLAPPRPYPPPA — higher, 0.728 ± 0.065
- GLCRVANGGTER — higher, 0.695 ± 0.018
- GLGGRAAQKCGQ — higher, 0.688 ± 0.016
- GLGQGVGWPWAV — higher, 0.678 ± 0.024
- GLGRRPGVGGVR — higher, 0.71 ± 0.0075
- GLGVPWVRWGWV — within error, 0.632 ± 0.019
- GLGVVHGYFLVE — lower, 0.59 ± 0.025
- GLKNECAIDGVL — within error, 0.623 ± 0.045
- GLLCWVGRWGVF — within error, 0.596 ± 0.05
- GLLGFVLSKDST — higher, 0.719 ± 0.052
- GLLPTPPASLLY — higher, 0.6888 ± 0.00085
- GLLRVGGFWSCL — higher, 0.747 ± 0.019
- GLLSKVEFEEYQ — within error, 0.655 ± 0.014
- GLLVAGGRNGDC — higher, 0.719 ± 0.054
- GLLYHIRVRSRG — higher, 0.66 ± 0.006
- GLMITSARYVGF — within error, 0.641 ± 0.012
- GLNCGVCFGGGV — higher, 0.701 ± 0.025
- GLPHPPPHPFSL — higher, 0.763 ± 0.055
- GLPSLHGTFRLS — higher, 0.69 ± 0.0077
- GLQLTLINLPLE — higher, 0.749 ± 0.029
- GLSSVVWSGGLC — within error, 0.6222 ± 0.0047
- GLVAVRARGSRA — within error, 0.663 ± 0.094
- GLVGPKDRVSGL — higher, 0.701 ± 0.018
- GLYSRPVNSNSF — higher, 0.762 ± 0.022
- GMDGRGWGGSVV — higher, 0.726 ± 0.038
- GMECFSGRGSEP — higher, 0.735 ± 0.062
- GMIGLAEVGIKC — lower, 0.573 ± 0.0067
- GMYRHEGQSWDL — higher, 0.7316 ± 0.0065
- GNEKSSRLRSTT — within error, 0.644 ± 0.12
- GNFGFKVELGVR — higher, 0.686 ± 0.031
- GNIREEYGSTGI — higher, 0.7226 ± 0.0032
- GNKKENEKKEKK — higher, 0.734 ± 0.022
- GNPGRTAHILQL — within error, 0.655 ± 0.03
- GNTGRLERLKRQ — higher, 0.734 ± 0.072
- GNVRRVYMDYQG — higher, 0.735 ± 0.039
- GPCQSPSLVLTC — lower, 0.555 ± 0.012
- GPGSWKWKSRRV — higher, 0.6634 ± 0.0034
- GPGTAMCLWWWG — higher, 0.692 ± 0.0085
- GPGTSSVARPVS — higher, 0.735 ± 0.07
- GPGYVFVGSGGW — higher, 0.692 ± 0.027
- GPLDEPRIWSHR — higher, 0.669 ± 0.0095
- GPLEGGDGRWVG — higher, 0.6852 ± 0.0015
- GPLNQALLHCSV — within error, 0.653 ± 0.021
- GPPAGGTARSPM — higher, 0.694 ± 0.029
- GPRGGGGWSCES — higher, 0.7366 ± 0.0032
- GPRIVVLKDVII — within error, 0.6403 ± 0.0063
- GPSPFCTIRLKN — within error, 0.655 ± 0.018
- GPSREFGSNWII — within error, 0.612 ± 0.034
- GPSSVGWLFVVC — lower, 0.553 ± 0.039
- GPSTVPGHGSDT — higher, 0.689 ± 0.021
- GPTFPPGLPSSL — within error, 0.695 ± 0.09
- GQEAGRERNNWQ — higher, 0.694 ± 0.011
- GQGEPRRVWGVV — higher, 0.6746 ± 0.005
- GQGGRAGRAADV — within error, 0.6532 ± 0.001
- GQIKIRAFPKSR — within error, 0.662 ± 0.052
- GQPYTHASSSIG — higher, 0.685 ± 0.017
- GQSVRELDSIKV — within error, 0.652 ± 0.17
- GQVSVGAVGSFE — within error, 0.642 ± 0.097
- GRACCILWGGPE — within error, 0.694 ± 0.06
- GRASGGGLGRGR — lower, 0.593 ± 0.0086
- GRDSECCSGGGG — higher, 0.683 ± 0.018
- GRENKWGKGRRE — within error, 0.67 ± 0.035
- GRFVVHEEVWFV — higher, 0.6958 ± 0.0035
- GRGACHSRGNQP — higher, 0.668 ± 0.014
- GRGGARARRRVL — within error, 0.687 ± 0.071
- GRGGEVALWRGV — within error, 0.6479 ± 0.0014
- GRGGGGVEPCFV — within error, 0.669 ± 0.07
- GRGICFGLPFLR — within error, 0.683 ± 0.039
- GRGLAEGRRITR — within error, 0.638 ± 0.062
- GRGLVDLLCGWV — within error, 0.683 ± 0.074
- GRGRCRGGVAVE — within error, 0.751 ± 0.23
- GRGSAGPARVST — higher, 0.697 ± 0.024
- GRGSGRCVVYWG — within error, 0.651 ± 0.069
- GRGVAPQGAVDA — higher, 0.714 ± 0.027
- GRKGARESSNEI — higher, 0.667 ± 0.0075
- GRKNPPGTTDES — within error, 0.725 ± 0.073
- GRKSSITLLHTL — within error, 0.58 ± 0.043
- GRLFLHPSLLAS — within error, 0.596 ± 0.062
- GRLIGICECLSV — within error, 0.622 ± 0.017
- GRLIRYGSLPSP — higher, 0.729 ± 0.032
- GRLLVSVFEVVH — within error, 0.614 ± 0.14
- GRMGGWCVSGEV — within error, 0.658 ± 0.017
- GRNIIARLNNMT — lower, 0.5748 ± 0.0047
- GRNLFGLLWARP — higher, 0.721 ± 0.0094
- GRRERSGKGKER — higher, 0.804 ± 0.14
- GRRGWFESSIRR — higher, 0.731 ± 0.014
- GRRPRRLNKDVQ — within error, 0.614 ± 0.025
- GRRRARPISRGT — within error, 0.681 ± 0.047
- GRRRSRGRPIDL — higher, 0.754 ± 0.03
- GRRRTFGRSRGG — within error, 0.651 ± 0.029
- GRRVKTVNSLGL — within error, 0.709 ± 0.061
- GRRWKQHPGWVS — within error, 0.573 ± 0.051
- GRSGSVGGIRGR — higher, 0.727 ± 0.04
- GRSGWFGSEGVR — higher, 0.803 ± 0.12
- GRSHYFLSILRI — lower, 0.5268 ± 0.0018
- GRSIGVGGGGRG — higher, 0.719 ± 0.059
- GRSLGTPRYHPG — higher, 0.713 ± 0.016
- GRSRGEGVRRNH — within error, 0.583 ± 0.042
- GRSYCTLVFVWK — lower, 0.582 ± 0.011
- GRTDKKKFISGL — within error, 0.608 ± 0.029
- GRTENKKPSIKL — within error, 0.711 ± 0.058
- GRVFDTNGIGLG — within error, 0.694 ± 0.074
- GRVIVCLSWGRL — lower, 0.591 ± 0.019
- GRVKEKCKRRYR — within error, 0.657 ± 0.034
- GRVLSEAWSEAF — within error, 0.664 ± 0.054
- GRVPSPDIGLPA — within error, 0.672 ± 0.022
- GRVSFFDYSRER — within error, 0.704 ± 0.06
- GRWRVEYWGFGG — higher, 0.722 ± 0.025
- GRYYVPGLAALV — within error, 0.653 ± 0.0085
- GSAACPVRGRFF — within error, 0.639 ± 0.095
- GSCFLLSLVSFI — lower, 0.56199 ± 0.00047
- GSDHIRQRNRME — higher, 0.716 ± 0.025
- GSDPPAPLRHPR — within error, 0.709 ± 0.19
- GSDVPCFLSLSY — higher, 0.711 ± 0.02
- GSDWGYDSGLKG — higher, 0.765 ± 0.044
- GSEVWGSPGFGG — higher, 0.803 ± 0.0083
- GSFPNSADQTFD — within error, 0.659 ± 0.014
- GSGGGVRRTIML — higher, 0.739 ± 0.022
- GSGGSGLLLVEW — higher, 0.763 ± 0.02
- GSGKHVGYIRVK — within error, 0.656 ± 0.0082
- GSGLWAGLWRAW — within error, 0.727 ± 0.078
- GSGRLGGDRVVG — higher, 0.6578 ± 0.0029
- GSGRSGSRFLPV — higher, 0.6606 ± 0.0057
- GSGVGACRGVKV — within error, 0.685 ± 0.034
- GSGYRPRVESWI — higher, 0.681 ± 0.0079
- GSKLTLRLSEHF — higher, 0.686 ± 0.025
- GSLGVWKGCGEG — within error, 0.652 ± 0.018
- GSLHPAPDLRTR — higher, 0.709 ± 0.036
- GSLLVCGMVAGM — lower, 0.5236 ± 0.0046
- GSNCQVRMSIHR — higher, 0.703 ± 0.011
- GSNLQWNSKREE — lower, 0.6165 ± 0.0016
- GSNTTKRESQPH — within error, 0.708 ± 0.067
- GSPPSSLTADSA — higher, 0.683 ± 0.017
- GSPSRKGQSRTG — higher, 0.698 ± 0.012
- GSRALDSPSHCS — higher, 0.74 ± 0.023
- GSRARKARQPHG — within error, 0.582 ± 0.2
- GSRGGPVGEAAG — higher, 0.665 ± 0.012
- GSRIGTVSIRRI — within error, 0.691 ± 0.072
- GSRRVSFFLRFG — within error, 0.647 ± 0.033
- GSSAEGKALTES — within error, 0.668 ± 0.053
- GSTGRGEGSGVT — within error, 0.664 ± 0.04
- GSTLWGMAGGAR — higher, 0.6985 ± 0.0056
- GSVEGVLWSGVL — higher, 0.711 ± 0.031
- GSVFVFWESWRC — higher, 0.6803 ± 0.0029
